Measurements reported in paper PMC314469, “Protein Interaction Networks by Proteome Peptide Scanning” (PLoS Biology, 2004).

Legend:
Assay in all cases: SPOT array
[1] = molecular target: T1, Yfr024 SH3 (LSB3_YEAST), P43603
T1 chain: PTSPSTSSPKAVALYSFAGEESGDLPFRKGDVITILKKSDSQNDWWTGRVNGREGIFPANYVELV

[2] = molecular target: T2, Yhr016c SH3 (YSC84_YEAST), P32793
T2 chain: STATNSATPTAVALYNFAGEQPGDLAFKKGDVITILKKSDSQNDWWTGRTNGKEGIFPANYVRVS

[3] = molecular target: T3, Boi1 SH3 (BOI1_YEAST), P38041
T3 chain: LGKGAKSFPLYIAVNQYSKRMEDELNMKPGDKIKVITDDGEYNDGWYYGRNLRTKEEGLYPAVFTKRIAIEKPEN

[4] = molecular target: T4, Boi2 SH3 (BOI2_YEAST), P39969
T4 chain: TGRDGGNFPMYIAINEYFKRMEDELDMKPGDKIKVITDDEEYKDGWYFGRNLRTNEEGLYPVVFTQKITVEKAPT

[5] = molecular target: T5, Rvs167 SH3 (RV167_YEAST), P39743
T5 chain: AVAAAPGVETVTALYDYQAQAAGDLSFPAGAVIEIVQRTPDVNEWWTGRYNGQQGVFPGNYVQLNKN

For SPPPVSPSKMKTTK [YMR255W 106-119], the normalised SPOT signal, Boehringer light units (BLU); mean over the file's lines of this peptide [1] was 22.8, the normalised SPOT signal, Boehringer light units (BLU); mean over the file's lines of this peptide [2] was 243 and the normalised SPOT signal, Boehringer light units (BLU); mean over the file's lines of this peptide [3] was 105. The normalised SPOT signal, Boehringer light units (BLU); mean over the file's lines of this peptide [4] was 45.3 and the normalised SPOT signal, Boehringer light units (BLU); mean over the file's lines of this peptide [5] was 25.3.

SKVPKAPTRETHIP [YML013W 181-194] was tested, and the normalised SPOT signal, Boehringer light units (BLU); mean over the file's lines of this peptide [1] was 1300, the normalised SPOT signal, Boehringer light units (BLU); mean over the file's lines of this peptide [2] was 218 and the normalised SPOT signal, Boehringer light units (BLU); mean over the file's lines of this peptide [3] was 23.4. It also gave a normalised SPOT signal, Boehringer light units (BLU); mean over the file's lines of this peptide [4] of 36.6 and a normalised SPOT signal, Boehringer light units (BLU); mean over the file's lines of this peptide [5] of 47.3.

SNSPSPPEKINNKR [YMR086W 654-667] gave a normalised SPOT signal, Boehringer light units (BLU); mean over the file's lines of this peptide [1] of 116, a normalised SPOT signal, Boehringer light units (BLU); mean over the file's lines of this peptide [2] of 136 and a normalised SPOT signal, Boehringer light units (BLU); mean over the file's lines of this peptide [3] of 61.1. For the same binder, the normalised SPOT signal, Boehringer light units (BLU); mean over the file's lines of this peptide [4] was 51.3 and the normalised SPOT signal, Boehringer light units (BLU); mean over the file's lines of this peptide [5] was 47.

SNVPTTPSRELNGT [YNL309W 346-359] showed a normalised SPOT signal, Boehringer light units (BLU); mean over the file's lines of this peptide [1] of 272, a normalised SPOT signal, Boehringer light units (BLU); mean over the file's lines of this peptide [2] of 210 and a normalised SPOT signal, Boehringer light units (BLU); mean over the file's lines of this peptide [3] of 33.2. It also gave a normalised SPOT signal, Boehringer light units (BLU); mean over the file's lines of this peptide [4] of 71.4 and a normalised SPOT signal, Boehringer light units (BLU); mean over the file's lines of this peptide [5] of 37.4.

Work on SNSPQIPKKKVKDQ [YBL004W 1825-1838] yielded a normalised SPOT signal, Boehringer light units (BLU); mean over the file's lines of this peptide [1] of 1830, a normalised SPOT signal, Boehringer light units (BLU); mean over the file's lines of this peptide [2] of 151 and a normalised SPOT signal, Boehringer light units (BLU); mean over the file's lines of this peptide [3] of 698. It also gave a normalised SPOT signal, Boehringer light units (BLU); mean over the file's lines of this peptide [4] of 64 and a normalised SPOT signal, Boehringer light units (BLU); mean over the file's lines of this peptide [5] of 34.4.

SLPPTPPYKAHKKK [YBR007C 353-366] gave a normalised SPOT signal, Boehringer light units (BLU); mean over the file's lines of this peptide [1] of 758, a normalised SPOT signal, Boehringer light units (BLU); mean over the file's lines of this peptide [2] of 108 and a normalised SPOT signal, Boehringer light units (BLU); mean over the file's lines of this peptide [3] of 114. The normalised SPOT signal, Boehringer light units (BLU); mean over the file's lines of this peptide [4] was 22.9 and the normalised SPOT signal, Boehringer light units (BLU); mean over the file's lines of this peptide [5] was 29.4.

With SLAPVYPLKSLLRI [YDR332W 665-678] the normalised SPOT signal, Boehringer light units (BLU); mean over the file's lines of this peptide [1] was 782, the normalised SPOT signal, Boehringer light units (BLU); mean over the file's lines of this peptide [2] was 173 and the normalised SPOT signal, Boehringer light units (BLU); mean over the file's lines of this peptide [3] was 7610. The normalised SPOT signal, Boehringer light units (BLU); mean over the file's lines of this peptide [4] was 54.3 and the normalised SPOT signal, Boehringer light units (BLU); mean over the file's lines of this peptide [5] was 45.5.

Work on SLSPKDPERARLLS [YMR145C 263-276] yielded a normalised SPOT signal, Boehringer light units (BLU); mean over the file's lines of this peptide [1] of 97.9, a normalised SPOT signal, Boehringer light units (BLU); mean over the file's lines of this peptide [2] of 158 and a normalised SPOT signal, Boehringer light units (BLU); mean over the file's lines of this peptide [3] of 79. For the same binder, the normalised SPOT signal, Boehringer light units (BLU); mean over the file's lines of this peptide [4] was 38.1 and the normalised SPOT signal, Boehringer light units (BLU); mean over the file's lines of this peptide [5] was 80.3.

Work on SPSPLNPYRPHHNM [YNL298W 402-415] yielded a normalised SPOT signal, Boehringer light units (BLU); mean over the file's lines of this peptide [1] of 343, a normalised SPOT signal, Boehringer light units (BLU); mean over the file's lines of this peptide [2] of 522 and a normalised SPOT signal, Boehringer light units (BLU); mean over the file's lines of this peptide [3] of 63.4. The normalised SPOT signal, Boehringer light units (BLU); mean over the file's lines of this peptide [4] was 53.9 and the normalised SPOT signal, Boehringer light units (BLU); mean over the file's lines of this peptide [5] was 43.7.

SNNPSKPRKYKTKS [YIL130W 110-123] gave a normalised SPOT signal, Boehringer light units (BLU); mean over the file's lines of this peptide [1] of 307, a normalised SPOT signal, Boehringer light units (BLU); mean over the file's lines of this peptide [2] of 61.8 and a normalised SPOT signal, Boehringer light units (BLU); mean over the file's lines of this peptide [3] of 74.1. It also gave a normalised SPOT signal, Boehringer light units (BLU); mean over the file's lines of this peptide [4] of 35.7 and a normalised SPOT signal, Boehringer light units (BLU); mean over the file's lines of this peptide [5] of 42.6.

SPFPSAPLRKLEIL [YIL034C 92-105] gave a normalised SPOT signal, Boehringer light units (BLU); mean over the file's lines of this peptide [1] of 86, a normalised SPOT signal, Boehringer light units (BLU); mean over the file's lines of this peptide [2] of 205 and a normalised SPOT signal, Boehringer light units (BLU); mean over the file's lines of this peptide [3] of 49.9. It also gave a normalised SPOT signal, Boehringer light units (BLU); mean over the file's lines of this peptide [4] of 39.5 and a normalised SPOT signal, Boehringer light units (BLU); mean over the file's lines of this peptide [5] of 29.4.

SMSPLPPARANKSD [YLR162W 51-64] gave a normalised SPOT signal, Boehringer light units (BLU); mean over the file's lines of this peptide [1] of 16600, a normalised SPOT signal, Boehringer light units (BLU); mean over the file's lines of this peptide [2] of 17100 and a normalised SPOT signal, Boehringer light units (BLU); mean over the file's lines of this peptide [3] of 120. For the same binder, the normalised SPOT signal, Boehringer light units (BLU); mean over the file's lines of this peptide [4] was 460 and the normalised SPOT signal, Boehringer light units (BLU); mean over the file's lines of this peptide [5] was 2610.

Work on SMYPGLPSRLEKEL [YDL029W 307-320] yielded a normalised SPOT signal, Boehringer light units (BLU); mean over the file's lines of this peptide [1] of 6190, a normalised SPOT signal, Boehringer light units (BLU); mean over the file's lines of this peptide [2] of 3680 and a normalised SPOT signal, Boehringer light units (BLU); mean over the file's lines of this peptide [3] of 77.3. The normalised SPOT signal, Boehringer light units (BLU); mean over the file's lines of this peptide [4] was 119 and the normalised SPOT signal, Boehringer light units (BLU); mean over the file's lines of this peptide [5] was 815.

SKIPMLPSRRTMAG [YHL027W 505-518] showed a normalised SPOT signal, Boehringer light units (BLU); mean over the file's lines of this peptide [1] of 45200, a normalised SPOT signal, Boehringer light units (BLU); mean over the file's lines of this peptide [2] of 103000 and a normalised SPOT signal, Boehringer light units (BLU); mean over the file's lines of this peptide [3] of 2650. It also gave a normalised SPOT signal, Boehringer light units (BLU); mean over the file's lines of this peptide [4] of 4640 and a normalised SPOT signal, Boehringer light units (BLU); mean over the file's lines of this peptide [5] of 58400.

SMTPDSPVKSDLTS [YNL233W 804-817] showed a normalised SPOT signal, Boehringer light units (BLU); mean over the file's lines of this peptide [1] of 407, a normalised SPOT signal, Boehringer light units (BLU); mean over the file's lines of this peptide [2] of 533 and a normalised SPOT signal, Boehringer light units (BLU); mean over the file's lines of this peptide [3] of 85.9. It also gave a normalised SPOT signal, Boehringer light units (BLU); mean over the file's lines of this peptide [4] of 38.5 and a normalised SPOT signal, Boehringer light units (BLU); mean over the file's lines of this peptide [5] of 31.9.

Binder SMEPHSPKKAKSVE [YIL112W 773-786] has a normalised SPOT signal, Boehringer light units (BLU); mean over the file's lines of this peptide [1] of 1230, a normalised SPOT signal, Boehringer light units (BLU); mean over the file's lines of this peptide [2] of 133 and a normalised SPOT signal, Boehringer light units (BLU); mean over the file's lines of this peptide [3] of 58.3. For the same binder, the normalised SPOT signal, Boehringer light units (BLU); mean over the file's lines of this peptide [4] was 72.7 and the normalised SPOT signal, Boehringer light units (BLU); mean over the file's lines of this peptide [5] was 85.5.

For SKPPQLPPKSSSLR [YJL056C 343-356], the normalised SPOT signal, Boehringer light units (BLU); mean over the file's lines of this peptide [1] was 45000, the normalised SPOT signal, Boehringer light units (BLU); mean over the file's lines of this peptide [2] was 2910 and the normalised SPOT signal, Boehringer light units (BLU); mean over the file's lines of this peptide [3] was 74.2. The normalised SPOT signal, Boehringer light units (BLU); mean over the file's lines of this peptide [4] was 6.6 and the normalised SPOT signal, Boehringer light units (BLU); mean over the file's lines of this peptide [5] was 140.

SNDPIPPPRKVSDV [YGR097W 457-470] showed a normalised SPOT signal, Boehringer light units (BLU); mean over the file's lines of this peptide [1] of 8060, a normalised SPOT signal, Boehringer light units (BLU); mean over the file's lines of this peptide [2] of 2640 and a normalised SPOT signal, Boehringer light units (BLU); mean over the file's lines of this peptide [3] of 76.6. For the same binder, the normalised SPOT signal, Boehringer light units (BLU); mean over the file's lines of this peptide [4] was 13.3 and the normalised SPOT signal, Boehringer light units (BLU); mean over the file's lines of this peptide [5] was 161.

With SLDPDRPEKDSVEE [YIR032C 171-184] the normalised SPOT signal, Boehringer light units (BLU); mean over the file's lines of this peptide [1] was 126, the normalised SPOT signal, Boehringer light units (BLU); mean over the file's lines of this peptide [2] was 93.6 and the normalised SPOT signal, Boehringer light units (BLU); mean over the file's lines of this peptide [3] was 83.1. The normalised SPOT signal, Boehringer light units (BLU); mean over the file's lines of this peptide [4] was 46.2 and the normalised SPOT signal, Boehringer light units (BLU); mean over the file's lines of this peptide [5] was 20.5.

In the case of SPLPVLPRRISTHT [YMR068W 249-262], the normalised SPOT signal, Boehringer light units (BLU); mean over the file's lines of this peptide [1] is reported as 35800, the normalised SPOT signal, Boehringer light units (BLU); mean over the file's lines of this peptide [2] is reported as 29500 and the normalised SPOT signal, Boehringer light units (BLU); mean over the file's lines of this peptide [3] is reported as 8950. It also gave a normalised SPOT signal, Boehringer light units (BLU); mean over the file's lines of this peptide [4] of 40.5 and a normalised SPOT signal, Boehringer light units (BLU); mean over the file's lines of this peptide [5] of 19000.

With SNSPISPHKLIYKN [YDR216W 473-486] the normalised SPOT signal, Boehringer light units (BLU); mean over the file's lines of this peptide [1] was 0, the normalised SPOT signal, Boehringer light units (BLU); mean over the file's lines of this peptide [2] was 143 and the normalised SPOT signal, Boehringer light units (BLU); mean over the file's lines of this peptide [3] was 71.5. For the same binder, the normalised SPOT signal, Boehringer light units (BLU); mean over the file's lines of this peptide [4] was 0 and the normalised SPOT signal, Boehringer light units (BLU); mean over the file's lines of this peptide [5] was 51.3.

SNFPDFPLKKYLKN [YER087W 333-346] was tested, and the normalised SPOT signal, Boehringer light units (BLU); mean over the file's lines of this peptide [1] was 382, the normalised SPOT signal, Boehringer light units (BLU); mean over the file's lines of this peptide [2] was 201 and the normalised SPOT signal, Boehringer light units (BLU); mean over the file's lines of this peptide [3] was 59.5. For the same binder, the normalised SPOT signal, Boehringer light units (BLU); mean over the file's lines of this peptide [4] was 15.4 and the normalised SPOT signal, Boehringer light units (BLU); mean over the file's lines of this peptide [5] was 17.9.
